Reference: patent US20260209386A1 (MYTHIC THERAPEUTICS, published 2026)

T1: Human PTK7 Protein, His Tag, Acro Biosystems (human, UniProt Q13308 31-704)
T1 construct: Bought recombinant protein; also called CCK4; not shown: His tag
T1 sequence: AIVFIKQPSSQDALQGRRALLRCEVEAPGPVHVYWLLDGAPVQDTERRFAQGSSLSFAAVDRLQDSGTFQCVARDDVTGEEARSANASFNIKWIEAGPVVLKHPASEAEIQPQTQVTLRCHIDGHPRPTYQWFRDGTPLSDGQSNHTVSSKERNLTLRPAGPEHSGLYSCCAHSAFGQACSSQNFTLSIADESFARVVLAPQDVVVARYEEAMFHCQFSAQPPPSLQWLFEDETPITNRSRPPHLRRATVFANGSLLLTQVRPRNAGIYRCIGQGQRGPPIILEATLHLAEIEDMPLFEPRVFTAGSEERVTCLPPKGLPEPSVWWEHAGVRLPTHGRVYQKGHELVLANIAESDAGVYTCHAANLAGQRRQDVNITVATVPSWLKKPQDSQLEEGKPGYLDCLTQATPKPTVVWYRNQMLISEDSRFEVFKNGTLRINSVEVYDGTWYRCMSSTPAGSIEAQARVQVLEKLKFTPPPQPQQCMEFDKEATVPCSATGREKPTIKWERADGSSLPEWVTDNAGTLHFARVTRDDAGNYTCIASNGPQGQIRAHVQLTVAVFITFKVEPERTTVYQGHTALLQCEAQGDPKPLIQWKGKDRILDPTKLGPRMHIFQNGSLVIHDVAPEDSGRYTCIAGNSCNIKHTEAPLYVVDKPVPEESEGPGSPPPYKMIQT

T2: Human PTK7 Protein, His Tag, Acro Biosystems (human, UniProt Q13308 31-704)
T2 construct: Bought protein; also called CCK4; not shown: His tag
T2 sequence: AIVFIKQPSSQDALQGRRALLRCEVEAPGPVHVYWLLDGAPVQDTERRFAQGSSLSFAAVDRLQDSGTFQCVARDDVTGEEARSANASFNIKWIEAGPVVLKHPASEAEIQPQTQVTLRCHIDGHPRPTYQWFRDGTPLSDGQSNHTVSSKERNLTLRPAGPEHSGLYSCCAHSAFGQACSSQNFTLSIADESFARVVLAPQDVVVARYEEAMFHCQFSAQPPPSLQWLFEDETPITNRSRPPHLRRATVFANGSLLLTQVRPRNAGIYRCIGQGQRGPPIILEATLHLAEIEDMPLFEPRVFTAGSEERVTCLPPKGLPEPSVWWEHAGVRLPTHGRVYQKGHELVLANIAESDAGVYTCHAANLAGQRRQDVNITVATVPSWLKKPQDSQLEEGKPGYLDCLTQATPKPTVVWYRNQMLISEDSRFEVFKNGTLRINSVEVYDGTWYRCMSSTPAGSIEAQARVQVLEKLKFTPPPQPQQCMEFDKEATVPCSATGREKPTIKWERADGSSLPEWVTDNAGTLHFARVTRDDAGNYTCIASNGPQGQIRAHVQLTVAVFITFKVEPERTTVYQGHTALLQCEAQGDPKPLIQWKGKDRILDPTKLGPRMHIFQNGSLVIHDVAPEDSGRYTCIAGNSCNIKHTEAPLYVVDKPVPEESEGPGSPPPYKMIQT


How the values were obtained:
[1] = target: T1, Human PTK7 Protein, His Tag, Acro …; test: BLI (Octet), antibody on anti-human Fc sensor, 50 nM PTK7 at pH 7.4, dissociation at pH 7.4 or 5.4; 1 = pH dependent binding relative to parent
[2] = target: T2, Human PTK7 Protein, His Tag, Acro …; test: BLI (Octet), antibody on anti-human Fc sensor, 50 nM PTK7, dissociation at pH 7.4 or 5.4; 1 = pH dependent binding relative to parent

Binder	binding result [1]	binding result [2]
MYT10937 (antibody, V domains shown, MYT9345 variant, His at VL pos 57 (L2 06)) VH: EVQLVESGGGLVQPGGSLRLSCTASGFSLSNYVMNWVRQAPGKGLEWVGIIDSSGSTYYASWAKGRFTISRDTSKNTVYLQMNSLRAEDTAVYFCARGLYLWGQGTLVTVSS VL: EIVMTQSPSTLSASVGDRVIITCQSSQSVYNNNLLAWYQQKPGKAPKLLIYYTSNLHSGVPSRFSGSGSGAEFTLTISSLQPDDFATYYCQGGYNGNIYAFGQGTKLTVL	binds	
MYT10943 (antibody, V domains shown, MYT9345 variant, substitution at VL pos 95 (L3 05), no Ala mark) VH: EVQLVESGGGLVQPGGSLRLSCTASGFSLSNYVMNWVRQAPGKGLEWVGIIDSSGSTYYASWAKGRFTISRDTSKNTVYLQMNSLRAEDTAVYFCARGLYLWGQGTLVTVSS VL: EIVMTQSPSTLSASVGDRVIITCQSSQSVYNNNLLAWYQQKPGKAPKLLIYYTSNLASGVPSRFSGSGSGAEFTLTISSLQPDDFATYYCQGGYHGNIYAFGQGTKLTVL	binds	
MYT10949 (antibody, V domains shown, MYT9345 LC variant; substitution position printed as n/a) VH: EVQLVESGGGLVQPGGSLRLSCTASGFSLSNYVMNWVRQAPGKGLEWVGIIDSSGSTYYASWAKGRFTISRDTSKNTVYLQMNSLRAEDTAVYFCARGLYLWGQGTLVTVSS VL: EIVMTQSPSTLSASVGDRVIITCQSSQSVYNNNLLAWYQQKPGKAPKLLIYYTSNLASGVPSRFSGSGSGAEFTLTISSLQPDDFATYYCQGGYNGNIYAFGQGTKLEIK	binds	
MYT10946 (antibody, V domains shown, MYT9345 variant, His at VL pos 98 (L3 08)) VH: EVQLVESGGGLVQPGGSLRLSCTASGFSLSNYVMNWVRQAPGKGLEWVGIIDSSGSTYYASWAKGRFTISRDTSKNTVYLQMNSLRAEDTAVYFCARGLYLWGQGTLVTVSS VL: EIVMTQSPSTLSASVGDRVIITCQSSQSVYNNNLLAWYQQKPGKAPKLLIYYTSNLASGVPSRFSGSGSGAEFTLTISSLQPDDFATYYCQGGYNGNHYAFGQGTKLTVL	binds	
MYT10939 (antibody, V domains shown, MYT9345 variant, His at VL pos 91 (L3 01)) VH: EVQLVESGGGLVQPGGSLRLSCTASGFSLSNYVMNWVRQAPGKGLEWVGIIDSSGSTYYASWAKGRFTISRDTSKNTVYLQMNSLRAEDTAVYFCARGLYLWGQGTLVTVSS VL: EIVMTQSPSTLSASVGDRVIITCQSSQSVYNNNLLAWYQQKPGKAPKLLIYYTSNLASGVPSRFSGSGSGAEFTLTISSLQPDDFATYYCHGGYNGNIYAFGQGTKLTVL	binds	
MYT10950 (antibody, V domains shown, MYT9345 variant, Ala at VL pos 95 (L3 05)) VH: EVQLVESGGGLVQPGGSLRLSCTASGFSLSNYVMNWVRQAPGKGLEWVGIIDSSGSTYYASWAKGRFTISRDTSKNTVYLQMNSLRAEDTAVYFCARGLYLWGQGTLVTVSS VL: EIVMTQSPSTLSASVGDRVIITCQSSQSVYNNNLLAWYQQKPGKAPKLLIYYTSNLASGVPSRFSGSGSGAEFTLTISSLQPDDFATYYCQGGYAGNIYAFGQGTKLTVL	binds	
MYT10942 (antibody, V domains shown, MYT9345 variant, His at VL pos 94 (L3 04)) VH: EVQLVESGGGLVQPGGSLRLSCTASGFSLSNYVMNWVRQAPGKGLEWVGIIDSSGSTYYASWAKGRFTISRDTSKNTVYLQMNSLRAEDTAVYFCARGLYLWGQGTLVTVSS VL: EIVMTQSPSTLSASVGDRVIITCQSSQSVYNNNLLAWYQQKPGKAPKLLIYYTSNLASGVPSRFSGSGSGAEFTLTISSLQPDDFATYYCQGGHNGNIYAFGQGTKLTVL	binds	
MYT10944 (antibody, V domains shown, MYT9345 variant, His at VL pos 96 (L3 06)) VH: EVQLVESGGGLVQPGGSLRLSCTASGFSLSNYVMNWVRQAPGKGLEWVGIIDSSGSTYYASWAKGRFTISRDTSKNTVYLQMNSLRAEDTAVYFCARGLYLWGQGTLVTVSS VL: EIVMTQSPSTLSASVGDRVIITCQSSQSVYNNNLLAWYQQKPGKAPKLLIYYTSNLASGVPSRFSGSGSGAEFTLTISSLQPDDFATYYCQGGYNHNIYAFGQGTKLTVL	binds	
MYT11182 (antibody, V domains shown, HC variant of MYT9460, sub at HCV pos 28 (H1 03)) VH: EVQLVESGGGLVQPGGSLRLSCTASGIHLSSYVMGWVRQAPGKGLEWVGYIYGGGGTYYATWARGRFTISRDTSKNTVYLQMNSLRAEDTAVYFCARAAADFYFNLWGQGTLVTVSS VL: EIVMTQSPSTLSASVGDRVIITCQASQSISSYLAWYQQKPGKAPKLLIYDISDLASGVPSRFSGSGSGAEFTLTISSLQPDDFATYYCQSYYWISNSGAAFGQGTKLTVL		binds
MYT11196 (antibody, V domains shown, HC variant of MYT9460, sub at HCV pos 56 (H2 07)) VH: EVQLVESGGGLVQPGGSLRLSCTASGIDLSSYVMGWVRQAPGKGLEWVGYIYGGGHTYYATWARGRFTISRDTSKNTVYLQMNSLRAEDTAVYFCARAAADFYFNLWGQGTLVTVSS VL: EIVMTQSPSTLSASVGDRVIITCQASQSISSYLAWYQQKPGKAPKLLIYDISDLASGVPSRFSGSGSGAEFTLTISSLQPDDFATYYCQSYYWISNSGAAFGQGTKLTVL		binds
MYT11197 (antibody, V domains shown, HC variant of MYT9460, sub at HCV pos 57 (H2 08)) VH: EVQLVESGGGLVQPGGSLRLSCTASGIDLSSYVMGWVRQAPGKGLEWVGYIYGGGGHYYATWARGRFTISRDTSKNTVYLQMNSLRAEDTAVYFCARAAADFYFNLWGQGTLVTVSS VL: EIVMTQSPSTLSASVGDRVIITCQASQSISSYLAWYQQKPGKAPKLLIYDISDLASGVPSRFSGSGSGAEFTLTISSLQPDDFATYYCQSYYWISNSGAAFGQGTKLTVL		binds
MYT11193 (antibody, V domains shown, HC variant of MYT9460, sub at HCV pos 53 (H2 04)) VH: EVQLVESGGGLVQPGGSLRLSCTASGIDLSSYVMGWVRQAPGKGLEWVGYIYHGGGTYYATWARGRFTISRDTSKNTVYLQMNSLRAEDTAVYFCARAAADFYFNLWGQGTLVTVSS VL: EIVMTQSPSTLSASVGDRVIITCQASQSISSYLAWYQQKPGKAPKLLIYDISDLASGVPSRFSGSGSGAEFTLTISSLQPDDFATYYCQSYYWISNSGAAFGQGTKLTVL		binds
MYT11184 (antibody, V domains shown, HC variant of MYT9460, sub at HCV pos 30 (H1 05)) VH: EVQLVESGGGLVQPGGSLRLSCTASGIDLHSYVMGWVRQAPGKGLEWVGYIYGGGGTYYATWARGRFTISRDTSKNTVYLQMNSLRAEDTAVYFCARAAADFYFNLWGQGTLVTVSS VL: EIVMTQSPSTLSASVGDRVIITCQASQSISSYLAWYQQKPGKAPKLLIYDISDLASGVPSRFSGSGSGAEFTLTISSLQPDDFATYYCQSYYWISNSGAAFGQGTKLTVL		binds
MYT11194 (antibody, V domains shown, HC variant of MYT9460, sub at HCV pos 54 (H2 05)) VH: EVQLVESGGGLVQPGGSLRLSCTASGIDLSSYVMGWVRQAPGKGLEWVGYIYGHGGTYYATWARGRFTISRDTSKNTVYLQMNSLRAEDTAVYFCARAAADFYFNLWGQGTLVTVSS VL: EIVMTQSPSTLSASVGDRVIITCQASQSISSYLAWYQQKPGKAPKLLIYDISDLASGVPSRFSGSGSGAEFTLTISSLQPDDFATYYCQSYYWISNSGAAFGQGTKLTVL		binds
MYT11180 (antibody, V domains shown, HC variant of MYT9460, sub at HCV pos 26 (H1 01)) VH: EVQLVESGGGLVQPGGSLRLSCTASHIDLSSYVMGWVRQAPGKGLEWVGYIYGGGGTYYATWARGRFTISRDTSKNTVYLQMNSLRAEDTAVYFCARAAADFYFNLWGQGTLVTVSS VL: EIVMTQSPSTLSASVGDRVIITCQASQSISSYLAWYQQKPGKAPKLLIYDISDLASGVPSRFSGSGSGAEFTLTISSLQPDDFATYYCQSYYWISNSGAAFGQGTKLTVL		binds
MYT11210 (antibody, V domains shown, HC variant of MYT9460, sub at HCV pos 100 (H3 05)) VH: EVQLVESGGGLVQPGGSLRLSCTASGIDLSSYVMGWVRQAPGKGLEWVGYIYGGGGTYYATWARGRFTISRDTSKNTVYLQMNSLRAEDTAVYFCARAAHDFYFNLWGQGTLVTVSS VL: EIVMTQSPSTLSASVGDRVIITCQASQSISSYLAWYQQKPGKAPKLLIYDISDLASGVPSRFSGSGSGAEFTLTISSLQPDDFATYYCQSYYWISNSGAAFGQGTKLTVL		binds
MYT11192 (antibody, V domains shown, HC variant of MYT9460, sub at HCV pos 52 (H2 03)) VH: EVQLVESGGGLVQPGGSLRLSCTASGIDLSSYVMGWVRQAPGKGLEWVGYIHGGGGTYYATWARGRFTISRDTSKNTVYLQMNSLRAEDTAVYFCARAAADFYFNLWGQGTLVTVSS VL: EIVMTQSPSTLSASVGDRVIITCQASQSISSYLAWYQQKPGKAPKLLIYDISDLASGVPSRFSGSGSGAEFTLTISSLQPDDFATYYCQSYYWISNSGAAFGQGTKLTVL		binds
MYT11195 (antibody, V domains shown, HC variant of MYT9460, sub at HCV pos 55 (H2 06)) VH: EVQLVESGGGLVQPGGSLRLSCTASGIDLSSYVMGWVRQAPGKGLEWVGYIYGGHGTYYATWARGRFTISRDTSKNTVYLQMNSLRAEDTAVYFCARAAADFYFNLWGQGTLVTVSS VL: EIVMTQSPSTLSASVGDRVIITCQASQSISSYLAWYQQKPGKAPKLLIYDISDLASGVPSRFSGSGSGAEFTLTISSLQPDDFATYYCQSYYWISNSGAAFGQGTKLTVL		binds
MYT11213 (antibody, V domains shown, HC variant of MYT9460, sub at HCV pos 103 (H3 08)) VH: EVQLVESGGGLVQPGGSLRLSCTASGIDLSSYVMGWVRQAPGKGLEWVGYIYGGGGTYYATWARGRFTISRDTSKNTVYLQMNSLRAEDTAVYFCARAAADFHFNLWGQGTLVTVSS VL: EIVMTQSPSTLSASVGDRVIITCQASQSISSYLAWYQQKPGKAPKLLIYDISDLASGVPSRFSGSGSGAEFTLTISSLQPDDFATYYCQSYYWISNSGAAFGQGTKLTVL		binds
